Test results taken from patent publication US20100034737A1 (published 2010).

Target: T1, mouse JAM-C on the surface of GL261-233R (JAM-C rescued) and GL261-233RC (JAM-C knock-down) mouse glioma cells (mouse, UniProt Q9D8B7 30-310)
T1 construct: whole, on cells; also called JAM-C on the surface of glioma cells
T1 sequence (looked up): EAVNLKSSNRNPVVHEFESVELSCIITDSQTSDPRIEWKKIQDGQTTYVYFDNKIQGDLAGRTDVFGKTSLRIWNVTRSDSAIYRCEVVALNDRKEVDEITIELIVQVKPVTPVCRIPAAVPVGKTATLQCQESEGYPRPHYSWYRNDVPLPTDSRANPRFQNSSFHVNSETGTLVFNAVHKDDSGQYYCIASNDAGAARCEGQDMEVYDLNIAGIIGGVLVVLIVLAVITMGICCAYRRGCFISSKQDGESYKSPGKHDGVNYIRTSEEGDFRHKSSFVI
Assay: flow cytometry of sJAM-B-Fc on GL261-233RC and GL261-233R cells (FIG. 22 A, B) and c-Src ELISA
Description: Cells were then washed with PBS, 0.2% FCS and 0.01% azide and analysed.
Amounts of total c-Src protein and of active phosphorylated-c-Src were quantified using FACE c-Src ELISA kit (Active Motif, CA, USA). […] At day 2, cells were incubated 30 min on ice and then 20 min at 37° C. with recombinant mouse JAM-B/Fc chimera antibody (R&D, MN, USA) at a final concentration of 5 μg/ml. Cells were then fixed and analysed with c-Src ELISA following the manufacturer's instructions (colorimetric Assay for adherent cells).

binding result: binds
B1: Recombinant Mouse JAM-B/Fc Chimera (Fc fusion, UniProt Q9JI59 29-236, looked up)
chain: FSASKDHRQEVTVIEFQEAILACKTPKKTTSSRLEWKKVGQGVSLVYYQQALQGDFKDRAEMIDFNIRIKNVTRSDAGEYRCEVSAPTEQGQNLQEDKVMLEVLVAPAVPACEVPTSVMTGSVVELRCQDKEGNPAPEYIWFKDGTSLLGNPKGGTHNNSSYTMNTKSGILQFNMISKMDSGEYYCEARNSVGHRRCPGKRMQVDVLN
notes: extracellular domain; Bought from R&D; also called sJAM-B-Fc chimera; soluble JAM-B; not shown: Fc part, detected with anti-human Fc antibody
